Patent US20130309246A1

Target: Notch (Notch pathway receptors) in MC3T3-E1 murine osteoblasts (mouse)
Assay: cell-based or functional assay

Substance: human JAGGED1 overexpressed in SCP28 breast cancer cells (JAG1 OE tumor cells) (from UniProt P78504 34-1218) (ligand)
- Notch activity (firefly luciferase Notch reporter in MC3T3-E1 osteoblasts cocultured with JAG1 OE tumor cells): 6 fold
